Results on one protein are retold here after publication PMC7126683 (Structure (London, England : 1993), 2005).

This series concerns the molecule itself. Put plainly: SEC.

B1: IBV-N218-329, recombinant C-terminal domain (residues 218-329) of the IBV nucleocapsid protein (domain or fragment, UniProt P69596 218-329, looked up)
chain: KADEMAHRRYCKRTIPPNYRVDQVFGPRTKGKEGNFGDDKMNEEGIKDGRVTAMLNLVPSSHACLFGSRVTPKLQLDGLHLRFEFTTVVPCDDPQFDNYVKICDQCVDGVGT
Consider B1, for which the stoichiometry N (usually the number of molecules, sites or subunits per partner or assembly) was 2.
